According to ChEMBL document CHEMBL1123679, “5-Quinone derivatives of 2'-deoxyuridine 5'-phosphate: inhibition and inactivation of thymidylate synthase, antitumor cell, and antiviral studies” (J Med Chem, 1987):

B1: Thymidylate synthase (Lactobacillus casei), P00469 (protein)
chain: MLEQPYLDLAKKVLDEGHFKPDRTHTGTYSIFGHQMRFDLSKGFPLLTTKKVPFGLIKSELLWFLHGDTNIRFLLQHRNHIWDEWAFEKWVKSDEYHGPDMTDFGHRSQKDPEFAAVYHEEMAKFDDRVLHDDAFAAKYGDLGLVYGSQWRAWHTSKGDTIDQLGDVIEQIKTHPYSRRLIVSAWNPEDVPTMALPPCHTLYQFYVNDGKLSLQLYQRSADIFLGVPFNIASYALLTHLVAHECGLEVGEFIHTFGDAHLYVNHLDQIKEQLSRTPRPAPTLQLNPDKHDIFDFDMKDIKLLNYDPYPAIKAPVAV
B2: Thymidylate synthase (Mus musculus), P07607 (protein)
chain: MLVVGSELQSDAQQLSAEAPRHGELQYLRQVEHILRCGFKKEDRTGTGTLSVFGMQARYSLRDEFPLLTTKRVFWKGVLEELLWFIKGSTNAKELSSKGVRIWDANGSRDFLDSLGFSARQEGDLGPVYGFQWRHFGAEYKDMDSDYSGQGVDQLQKVIDTIKTNPDDRRIIMCAWNPKDLPLMALPPCHALCQFYVVNGELSCQLYQRSGDMGLGVPFNIASYALLTYMIAHITGLQPGDFVHTLGDAHIYLNHIEPLKIQLQREPRPFPKLKILRKVETIDDFKVEDFQIEGYNPHPTIKMEMAV

Columns and labels:
[1] = compound: O=C1C=CC(=O)C(c2cn([C@H]3C[C@H](O)[C@@H](COP(=O)(O)O)O3)c(=O)[nH]c2=O)=C1; test: (§1) Ability to inhibit the thymidylate synthase from Lactobacillus casei was determined and expressed as inhibition constant(Km); conditions: Lacticaseibacillus casei
[2] = compound: COc1c(C)c(C)c(OC)c(-c2cn([C@H]3C[C@H](O)[C@@H](COP(=O)(O)O)O3)c(=O)[nH]c2=O)c1C; test: as §1; conditions: Lacticaseibacillus casei
[3] = compound: COc1c(C)c(-c2cn([C@H]3C[C@H](O)[C@@H](COP(=O)(O)O)O3)c(=O)[nH]c2=O)c(OC)c2ccccc12; test: as §1; conditions: Lacticaseibacillus casei
[4] = substrate: COc1cc(-c2cn([C@H]3C[C@H](O)[C@@H](COP(=O)(O)O)O3)c(=O)[nH]c2=O)c(OC)c(C)c1C; conditions: Lacticaseibacillus casei
[5] = substrate: CC1=C(c2cn([C@H]3C[C@H](O)[C@@H](COP(=O)(O)O)O3)c(=O)[nH]c2=O)C(=O)c2ccccc2C1=O; conditions: Lacticaseibacillus casei
[6] = substrate: CC1=C(C)C(=O)C(c2cn([C@H]3C[C@H](O)[C@@H](COP(=O)(O)O)O3)c(=O)[nH]c2=O)=CC1=O; conditions: Lacticaseibacillus casei
[7] = substrate: CC1=C(C)C(=O)C(c2cn([C@H]3C[C@H](O)[C@@H](COP(=O)(O)O)O3)c(=O)[nH]c2=O)=C(C)C1=O; conditions: Lacticaseibacillus casei
[8] = substrate: CC1=C(c2cn([C@H]3C[C@H](O)[C@@H](COP(=O)(O)O)O3)c(=O)[nH]c2=O)C(=O)c2ccccc2C1=O; conditions: L1210
[9] = substrate: CC1=C(C)C(=O)C(c2cn([C@H]3C[C@H](O)[C@@H](COP(=O)(O)O)O3)c(=O)[nH]c2=O)=CC1=O; conditions: L1210
[10] = substrate: CC1=C(C)C(=O)C(c2cn([C@H]3C[C@H](O)[C@@H](COP(=O)(O)O)O3)c(=O)[nH]c2=O)=C(C)C1=O; conditions: L1210

Row | Protein | Km [1] | Km [2] | Km [3] | Km [4] | Km [5] | Km [6] | Km [7] | Km [8] | Km [9] | Km [10]
1 | B1 | 7.6 µM | 5.25 µM | 5.25 µM | 5.25 µM | 6.41 µM | 6.98 µM | 6.98 µM | – | – | –
2 | B2 | – | – | – | – | – | – | – | 0.6 µM | 2.46 µM | 0.57 µM
